This note sets out measurements from a protein production outcome set (Wang et al. 2014).

A short description of this series: label from the status in PepcDB records.
For “MVKATKAEKKIAYDTKLCQLIDEYTQILVVAADNVGSTQLQNIRKGLRGDSVVLMGKNTMMKRSVRIHSENTGNTAILNLLPLLQGNVGLIFTKGDLKEVSEEVAKYKVGAPARVGLVAPIDVVVQPGNTGLDPSQTSFFQVLNIPTKINKGTVEIITPVELIKQGDKVGSSEAALLAKLGIRPFSYGLVVQSVYDNGSVFSPEVLDLTEDQLVEKFASGISMVTSLALAVSYPTLAAAPHMFINAYKNALAIAVATEYTFPQAEKVKEYLKDPSKFAVASVAAVSADAGGGAPAAAKVEEKEESDEEDYGGDFGLFDEE”, the protein production entry is on record as “failed”. For “MVKEPGGKHVLCVGAAVLDTLFRVADMPKGEGKVLPYEVLQIAEGMASSAAYAVHRMGGRASLWGAVGDDETGTRILRDLSESGIDTSGMTVAPGARSALSTIIIDNRGERLIVPFYDHRLHEKKRACTPEDIALFDAVLVDVRWPELALDVLTVARALGKPAILDGDVAPVETLEGLAPAATHIVFSEPAATRLTGLETVKDMLPVLHARYPQTFIAVTAGPAGCWWTEADDPTVHFQTTMQVEAVDTLAAGDIFHGTFALAMAEGMQSRAAVRLSSVAAALKCTVFGGRIGAPTREETEEAMRQWLERESEPALRAS”, the protein production result is on record as “not failed”. In the case of “MVKHHHLYELSPMVTGWTICVMVLRIYKKFLNLNAFELRLVLADEWGTQIEATIGPRFSAFYFDRIKENQWKTITTFLVRPNCEAIKTTPHQFRILFMDHTIVTSSTPRETGLLNKFTPFDYIVDDVVGNDTLVDLIGALVNVGILTNTASNENDMAGFKLPFTIMDKNKDTLVCEAYGEIAVDLEKRFRAFRKNNVVIALAWWKILRFYPVAAIPEVYLLAPMLAKIVSYVAESGVDSLKSFVKAGLLFKAAVYSKETLSCVRLDRSWYFMLAFHMCELQEAIAILDGIKDVFPHAGLLYIMLHSCAGSIPWEFYRMYKRRYYKFSEVDLFADKLMFHINEVGPRRQGTYKNS” it was “failed”. In the case of “MVKHIVLFKLRDDVPVEEKLVVMNSFKEAIEALPAKISVIRKIEVGLNMNPGETWNIALYSEFDNLDDVKFYATHPEHVAAGKILAETKESRACVDYEF” it was “not failed”; in that of “MVKIAASILACDLARLADEVKRVEEHVDMIHFDVMDGHFVPNISFGLPVLKALRKETKLPISVHLMITNPEDYIDRFIEEGADMVAIHYESTFHLHRLVHRVKDLGARAFVAINPHTPINLLSEIITDVDGVLVMSVNPGFSGQRFIARSLEKIRNLRKMVKELGLETEIMVDGGVNEENASILVKNGATILVMGYGIFRNDNYVELIKSIKQEREEFAD”, “not failed”; in that of “MVKKMKSKTISTIHIDTFSIPFPFVAMSNKVCRGYTLIRAFGITALAILILVGIAGAAPFAYVTNIGDYDQRGPNVAVIDTATNNVTARVPLGGGWPVGVAVNPAGTKIYVVDSPSDSTVYVIDTATNKVSAKVNLGSSYPARITFNPAGTRVYVTKQHDYTDIFVINPATNTLMAPIIVGPSTYGIAFTPDGKKIYAANCNNNTIYVIDAATNKVTANISVGDSPCGIAVTPDGKKVYVLNYDSNTVSVINTATDNVIATVPVGNSPNLVAVTSNGNKVYVANNNTVSVIDTATNNVIATIPVGTSSRKIVINPDGNRVYLVNFGSNSVSVIDTATDNVIANVPVGEQPMGIAVTPDGKRVYVTNSRSSNVSVIDTATDTVAATVNAGILPTGVVIVPLTDSDMTSQSTGAISSSTEDRGIEVTNISSSEEINAVELNNYSDENNPESDNDNGSNANDSSKNNSTPGFGLLESLAGLYVGWKLGKR”, “failed”.

On to “MVKKNVGLRFLSILILMALLIGNVQSFNVAAAEGVIVNGTQFKDTSGNVIHAHGGGMLKHGDYYYWYGEYRDDSNLFLGVSCYRSKDLVNWEYRGEVLSRNSAPELNHCNIERPKVMYNASTGEFVMWMHWENGINYGQARAAVAYSKTPDGKFTYIRSFRPMQDTGVMDHGLPGYMSRDCNVFVDTDGKGYFISAANENMDLHLYELTPDYKNIASLKAKLFVGQQREAPCLIKRNGYYYLITSGCTGWNPNQAKYAYSKDLASGWSQLYNLGNSTTYRSQPTFIIPVQGSSGTSYLYMGDRWAGAWGGKVNDSQYVWLPLNFISDTTLELPYYDSVKIDASSGIISEYIPDTTRYKLVNKNSGKVLDVLDGSVDNAAQIVQWTDNGSLSQQWYLVDVGGGYKKIVNVKSGRALDVKDESKEDGGVLIQYTSNGGYNQHWKFTDIGDGYYKISSRHCGKLIDVRKWSTEDGGIIQQWSDAGGTNQHWKLVLVSSPEPSPSPSPQVVKGDVNGDLKVNSTDFSMLRRYLLKTIDNFPTENGKQAADLNGDGRINSSDLTMLKRYLLMEVDL”, for which the protein production result is on record as “failed”. Then “MVKMAKMANKFKELDRTAEEKYKKGRISFRVGRFEDALAAYGEAASAWKEMADLLFDKGKETRGKEFLEKARDAKSCYGMALFKLERYEEALEIVDADLKLKPENPTRWSNRGFVLSALGRNEEALEAFEKALAFDPKSPKILTSQGIVYFKMGFLKKSLETFDRALATEPRKASDWACKIPRFSFFSRNKAPIMKPDNIETWYWKGNVLLELGEKEKALNSFRKALESDPDHLNSLLSGGDLLCEFAEYGEAFKCYVRALKLSPGNEAAEKGKEFCEAKINE”, with “failed”. Turning to “MVKPMHLFAVVDALEQAQQFQQVLASRDVSTELVQIEQLNARFLRHHPELALCVDLDGLWLSANGMKMQPDWQAEIPRLKRASLKSEMIARACQINEQPSLIDATAGLGHDSLLMAYLGAHVTLVERHPVLFTLLEDAKSKAENDPFLSKYMQRIHLIFQDAHYYLQQCNQDDRKVDVIYLDPMFPQRDQHHQVIKKQAQVKKQMQLLHLLLPEDGEMDLGDQLLPLAQQIASRVVVKRPKHAVFLNEQQPDHQWQGDACRFDAYFQISMLEHHHHHH”, the protein production entry is recorded as “failed”. Then “MVKQCSPAHNIFERVSKCYVEKQQPHDVSIPNIRLTVSATGLAFGSVHQANANQNQIACFYFSCNFSSKSNHHQSQAIVREEIQKNLRPVRIVGHQSMASSWRRSIGNVRSFIGNSMGGLRGGQSAASWVVAGTIAYFLWIKPEQDLKKEQEARAALAMADTNQYVEKRKPIADPQVTGLIYGNKNGTDKSED”, with “failed”; and “MVKSYQRFEQAAAFGVIASNANCVWIPASSGNSNGSGPGQLITSALEDVNIWDIKTGDLVSKLSDGLPPGASDARGAKPAECTYLEAHKDTDLLAVGYADGVIKVWDLMSKTVLLNFNGHKAAITLLQFDGTGTRLISGSKDSNIIVWDLVGEVGLYKLRSHKDSITGFWCQGEDWLISTSKDGMIKLWDLKTHQCIETHIAHTGECWGLAVKDDLLITTGTDSQVKIWKLDIENDKMGGKLTEMGIFEKQSKQRGLKIEFITNSSDKTSFFYIQNADKTIETFRIRKEEEIARGLKKREKRLKEKGLTEEEIAKSIKESYSSFILHPFQTIRSLYKIKSASWTTVSSSKLELVLTTSSNTIEYYSIPYEKRDPTSPAPLKTHTIELQGQRTDVRSIDISDDNKLLATASNGSLKIWNIKTHKCIRTFECGYALTCKFLPGGLLVILGTRNGELQLFDLASSSLLDTIEDAHDAAIWSLDLTSDGKRLVTGSADKTVKFWDFKVENSLVPGTKNKFLPVLKLHHDTTLELTDDILCVRVSPDDRYLAISLLDNTVKVFFLDSMKFYLSLYGHKLPVLSIDISFDSKMIITSSADKNIKIWGLDFGDCHKSLFAHQDSIMNVKFLPQSHNFFSCSKDAVVKYWDGEKFECIQKLYAHQSEVWALAVATDGGFVVSSSHDHSIRIWEETEDQVFLEEEKEKELEEQYEDTLLTSLEEGNGDDAFKADASGEGVEDEASGVHKQTLESLKAGERLMEALDLGIAEIEGLEAYNRDMKLWQRKKLGEAPIKPQGNAVLIAVNKTPEQYIMDTLLRIRMSQLEDALMVMPFSYVLKFLKFIDTVMQNKTLLHSHLPLICKNLFFIIKFNHKELVSQKNEELKLQINRVKTELRSALKSTEDDLGFNVQGLKFVKQQWNLRHNYEFVDEYDQQEKESNSARKRVFGTVI”, with “failed”. In the case of “MVKTFRQREEDIVRCNRCGFCEEVCPTYKATGEEFSLARGRNRLMRQSMEGKLDLTKEPEINQHIYSCLLCGACVAACPSSVITDTLIKTARAEITRAKGQPFPIRMALRGVLANQRRLTLGAKVLRFYQRSGARWLARHIGFLNLMGSLGKAEGLLPAIPEKTLRVQLPQLLKKPMKPRHKVAYFAGCMINNFFTAVGEATLRVYQENDIEVVVPTSNCCGIPHEAYGDIEMQIKLAKENLDAFSRYEVEAIVTDCASCAHGLHSYAELLQDDPHYGPLAAQLAAKVKDASQYLVEIGFKKEMGPVNATVTYHDPCHAARGLKVKEQPREILKSIPGVKFVEMNESDWCCGGAGSYNVTHYELSRKILARKMDNFKKTGAEYLATSCPACLMQLAHGLDVYRLSGKAIHVMQILDQAYQNRAVRSKAKAG” it was “failed”. As to “MVKVAHVQLSSCCGCLVSLADTYEKLLDVLGAIDLVYSQTLADVREVPDDVDIILLEGSVCLSDHHAMEVALDSRKKAKILVALGACAATGNVTRFSKGNQPSKPVHDAFAPLTEVVKCDLAIPGCPPSPESIVAVVLAALNGDMEYLEPYAELAKYGSEACGCDLITKVINKSLCMGCGSCAAACPTRAVSMDAGRPLVDKEICIKCGSCSVQCPRIRFPDLIEKIE”, the protein production entry was “failed”. Then “MVKVLILGQGYVASTFVAGLEKLRKGEIEPYGVPLARELPIGFEDIKIVGSYDVDRAKIGKKLSEVVKQYWNDVDSLTSDPEIRKGVHLGSVRNLPIEAEGLEDSMTLKEAVDTLVKEWTELDPDVIVNTCTTEAFVPFGNKEDLLKAIENNDKERLTATQVYAYAAALYANKRGGAAFVNVIPTFIANDPAFVELAKENNLVVFGDDGATGATPFTADVLSHLAQRNRYVKDVAQFNIGGNMDFLALTDDGKNKSKEFTKSSIVKDILGYDAPHYIKPTGYLEPLGDKKFIAIHIEYVSFNGATDELMINGRINDSPALGGLLVDLVRLGKIALDRKEFGTVYPVNAFYMKNPGPAEEKNIPRIIAYEKMRIWAGLKPKWL”, with “not failed”.

Regarding “MVLFVDFLLEWLEMMRTRVRETTYASYNSGIRQSIIPYFMDKKLTLTDIEENPKYLQDFYQHELSKGLSPNSVLRRHANIRKALQHAFHLGLIKSNPADRIERPKKQLEHHHHHH”, the protein production entry is listed as “failed”. In the case of “MVLGEFAPWRLWSLAGSAKDWRGSKQPRAMTDLVTNQAWTLIDNGRAADALRLTTGPVALPQASAGLLMAHAAALKALGRTDEALTFNRRAVARAPGDRFSWYNLAATLGDLALDDEAEGAARKTIALGLDVPEVRLVLGKALQGLHRYDEAEATFVRALAARPSDATVHLNLAQLRWMRSGRSDEALAPLDAAIARHPADVTLRTIRSNVLTFAGDHAGADATLEDALTRAPGDLAVRIAAARAAGAVGDRARMLAHAREAARLAPGALESQTVLCEALLAAGQADVAARTAEALVAAAPDDQYALVLRNTAWRITGDAQGDLFRDYAALVRTDRLETPEGWDSLDAFLDALRDRMLELHDLKTHPLNQSLRGGSQVPSLDRSRDPLVQAFFACAHKAVARYIEALGAGEDPIRRRRASDFAFAGGWSVRLRSEGFHADHVHPRGWISSAFYLDLPGRFDDETTRAGWLRFGRPGCLTEPALEAEHFIKPERGTLALFPSCLWHGTQPFTDADHRLTIAFDVVPR”, the protein production result is given as “failed”. As to “MVLLTMTKRLFKGLLAVSLAVSLHGGEVKEKKPVKPVKEDPQELAAKRVEAFSRFSNVVSEIEKKYVDKISISEIMTKAIEGLLSNLDAHSAYLNEKKFKEFQAQTEGEFGGLGITVGMRDGVLTVIAPLEGTPAYKAGVKSGDNILKINNESTLSMSIDDAINLMRGKPKTPIQITVVRKNEPKPLVFNIIRDIIKLPSVYVKKIKETPYLYVRVSGFDKNVTKSVLEGLKANPKAKGIVLDLRGNPGGLLNQAVGLSNLFIKEGVLVSQKGKNKEENLEYKANGRAPYTNLPIAVLVNGGSASASEIVAGALQDHKRAVIIGEKTFGKGSVQMLLPVNKDEAIKITTARYYLPSGRTIQAKGITPDIVIYPGKVPENENKFSLKEADLKHHLEQELKKIDDKTPNSKEADKDKKNEEEKEITPKMINDDIQLKTAIDSLKTWSIVDEKMDEKAPKKK”, the protein production entry was “failed”.
